T1: Cdc12 (S. cerevisiae, UniProt P32468 1-407)
T1 sequence (looked up): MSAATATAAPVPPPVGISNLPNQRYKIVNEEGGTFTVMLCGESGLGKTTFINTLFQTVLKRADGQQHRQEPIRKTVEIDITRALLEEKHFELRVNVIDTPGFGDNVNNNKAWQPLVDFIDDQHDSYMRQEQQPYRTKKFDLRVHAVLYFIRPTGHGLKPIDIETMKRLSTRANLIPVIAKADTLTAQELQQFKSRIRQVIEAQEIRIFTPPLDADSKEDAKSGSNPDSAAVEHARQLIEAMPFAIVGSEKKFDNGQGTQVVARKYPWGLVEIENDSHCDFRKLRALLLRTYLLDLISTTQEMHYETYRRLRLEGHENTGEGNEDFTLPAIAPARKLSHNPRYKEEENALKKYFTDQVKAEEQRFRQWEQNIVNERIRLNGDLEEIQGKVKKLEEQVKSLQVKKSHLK


How the values were obtained:
Cdc12 = biological target: T1, Cdc12; experiment: negative-stain electron microscopy
[1] = biological target: the molecule itself; experiment: negative-stain electron microscopy
[2] = biological target: the molecule itself; experiment: electron microscopy of lipid monolayers

| Binder | percent of particles that are heptamers [1] | binding result [2] | also measured |
| --- | --- | --- | --- |
| Cdc11(Δ2–18) (natural protein, S. cerevisiae, UniProt P32458 1-415, looked up) MRGITFTVMIVGQSGSGRSTFINTLCGQQVVDTSTTILLPTDTSTEIDLQLREETVELEDDEGVKIQLNIIDTPGFGDSLDNSPSFEIISDYIRHQYDEILLEESRVRRNPRFKDGRVHCCLYLINPTGHGLKEIDVEFIRQLGSLVNIIPVISKSDSLTRDELKLNKKLIMEDIDRWNLPIYNFPFDEDEISDEDYETNMYLRTLLPFAIIGSNEVYEMGGDVGTIRGRKYPWGILDVEDSSISDFVILRNALLISHLHDLKNYTHEILYERYRTEALSGESVAAESIRPNLTKLNGSSSSSTTTRRNTNPFKQSNNINNDVLNPASDMHGQSTGENNETYMTREEQIRLEEERLKAFEERVQQELLLKRQELLQREKELREIEARLEKEAKIKQEE | – | – | percent of particles that are heptamers (Cdc12): 5.4% |
| Cdc3–Cdc11–(His)6–Cdc12-Cdc10(H24A R25A K28A K29A) complex (complex, S. cerevisiae) chain 1: MSLKEEQVSIKQDPEQEERQHDQFNDVQIKQESQDHDGVDSQYTNGTQNDDSERFEAAESDVKVEPGLGMGITSSQSEKGQVLPDQPEIKFIRRQINGYVGFANLPKQWHRRSIKNGFSFNLLCVGPDGIGKTTLMKTLFNNDDIEANLVKDYEEELANDQEEEEGQGEGHENQSQEQRHKVKIKSYESVIEENGVKLNLNVIDTEGFGDFLNNDQKSWDPIIKEIDSRFDQYLDAENKINRHSINDKRIHACLYFIEPTGHYLKPLDLKFMQSVYEKCNLIPVIAKSDILTDEEILSFKKTIMNQLIQSNIELFKPPIYSNDDAENSHLSERLFSSLPYAVIGSNDIVENYSGNQVRGRSYPWGVIEVDNDNHSDFNLLKNLLIKQFMEELKERTSKILYENYRSSKLAKLGIKQDNSVFKEFDPISKQQEEKTLHEAKLAKLEIEMKTVFQQKVSEKEKKLQKSETELFARHKEMKEKLTKQLKALEDKKKQLELSINSASPNVNHSPVPTKKKGFLR chain 2: MSGIIDASSALRKRKHLKRGITFTVMIVGQSGSGRSTFINTLCGQQVVDTSTTILLPTDTSTEIDLQLREETVELEDDEGVKIQLNIIDTPGFGDSLDNSPSFEIISDYIRHQYDEILLEESRVRRNPRFKDGRVHCCLYLINPTGHGLKEIDVEFIRQLGSLVNIIPVISKSDSLTRDELKLNKKLIMEDIDRWNLPIYNFPFDEDEISDEDYETNMYLRTLLPFAIIGSNEVYEMGGDVGTIRGRKYPWGILDVEDSSISDFVILRNALLISHLHDLKNYTHEILYERYRTEALSGESVAAESIRPNLTKLNGSSSSSTTTRRNTNPFKQSNNINNDVLNPASDMHGQSTGENNETYMTREEQIRLEEERLKAFEERVQQELLLKRQELLQREKELREIEARLEKEAKIKQEE chain 3: MSAATATAAPVPPPVGISNLPNQRYKIVNEEGGTFTVMLCGESGLGKTTFINTLFQTVLKRADGQQHRQEPIRKTVEIDITRALLEEKHFELRVNVIDTPGFGDNVNNNKAWQPLVDFIDDQHDSYMRQEQQPYRTKKFDLRVHAVLYFIRPTGHGLKPIDIETMKRLSTRANLIPVIAKADTLTAQELQQFKSRIRQVIEAQEIRIFTPPLDADSKEDAKSGSNPDSAAVEHARQLIEAMPFAIVGSEKKFDNGQGTQVVARKYPWGLVEIENDSHCDFRKLRALLLRTYLLDLISTTQEMHYETYRRLRLEGHENTGEGNEDFTLPAIAPARKLSHNPRYKEEENALKKYFTDQVKAEEQRFRQWEQNIVNERIRLNGDLEEIQGKVKKLEEQVKSLQVKKSHLK chain 4: MDPLSSVQPASYVGFDTITNQIEAALLAAGFQFNIMVVGQSGLGKSTLINTLFASHLIDSATGDDISALPVTKTTEMKISTHTLVEDRVRLNINVIDTPGFGDFIDNSKAWEPIVKYIKEQHSQYLRKELTAQRERFITDTRVHAILYFLQPNGKELSRLDVEALKRLTEIANVIPVIGKSDTLTLDERTEFRELIQNEFEKYNFKIYPYDSEELTDEELELNRSVRSIIPFAVVGSENEIEINGETFRGRKTRWSAINVEDINQCDFVYLREFLIRTHLQDLIETTSYIHYEGFRARQLIALKENANSRSSAHMSSNAIQR | 14.2% | – | – |
| (His)6–Cdc12-Cdc11-Cdc3(G261V) complex (complex, S. cerevisiae) chain 1: MSAATATAAPVPPPVGISNLPNQRYKIVNEEGGTFTVMLCGESGLGKTTFINTLFQTVLKRADGQQHRQEPIRKTVEIDITRALLEEKHFELRVNVIDTPGFGDNVNNNKAWQPLVDFIDDQHDSYMRQEQQPYRTKKFDLRVHAVLYFIRPTGHGLKPIDIETMKRLSTRANLIPVIAKADTLTAQELQQFKSRIRQVIEAQEIRIFTPPLDADSKEDAKSGSNPDSAAVEHARQLIEAMPFAIVGSEKKFDNGQGTQVVARKYPWGLVEIENDSHCDFRKLRALLLRTYLLDLISTTQEMHYETYRRLRLEGHENTGEGNEDFTLPAIAPARKLSHNPRYKEEENALKKYFTDQVKAEEQRFRQWEQNIVNERIRLNGDLEEIQGKVKKLEEQVKSLQVKKSHLK chain 2: MSGIIDASSALRKRKHLKRGITFTVMIVGQSGSGRSTFINTLCGQQVVDTSTTILLPTDTSTEIDLQLREETVELEDDEGVKIQLNIIDTPGFGDSLDNSPSFEIISDYIRHQYDEILLEESRVRRNPRFKDGRVHCCLYLINPTGHGLKEIDVEFIRQLGSLVNIIPVISKSDSLTRDELKLNKKLIMEDIDRWNLPIYNFPFDEDEISDEDYETNMYLRTLLPFAIIGSNEVYEMGGDVGTIRGRKYPWGILDVEDSSISDFVILRNALLISHLHDLKNYTHEILYERYRTEALSGESVAAESIRPNLTKLNGSSSSSTTTRRNTNPFKQSNNINNDVLNPASDMHGQSTGENNETYMTREEQIRLEEERLKAFEERVQQELLLKRQELLQREKELREIEARLEKEAKIKQEE chain 3: MSLKEEQVSIKQDPEQEERQHDQFNDVQIKQESQDHDGVDSQYTNGTQNDDSERFEAAESDVKVEPGLGMGITSSQSEKGQVLPDQPEIKFIRRQINGYVGFANLPKQWHRRSIKNGFSFNLLCVGPDGIGKTTLMKTLFNNDDIEANLVKDYEEELANDQEEEEGQGEGHENQSQEQRHKVKIKSYESVIEENGVKLNLNVIDTEGFGDFLNNDQKSWDPIIKEIDSRFDQYLDAENKINRHSINDKRIHACLYFIEPTVHYLKPLDLKFMQSVYEKCNLIPVIAKSDILTDEEILSFKKTIMNQLIQSNIELFKPPIYSNDDAENSHLSERLFSSLPYAVIGSNDIVENYSGNQVRGRSYPWGVIEVDNDNHSDFNLLKNLLIKQFMEELKERTSKILYENYRSSKLAKLGIKQDNSVFKEFDPISKQQEEKTLHEAKLAKLEIEMKTVFQQKVSEKEKKLQKSETELFARHKEMKEKLTKQLKALEDKKKQLELSINSASPNVNHSPVPTKKKGFLR | – | binds | – |
| Cdc3(G261V) (natural protein, S. cerevisiae, UniProt P32457 1-520, looked up) MSLKEEQVSIKQDPEQEERQHDQFNDVQIKQESQDHDGVDSQYTNGTQNDDSERFEAAESDVKVEPGLGMGITSSQSEKGQVLPDQPEIKFIRRQINGYVGFANLPKQWHRRSIKNGFSFNLLCVGPDGIGKTTLMKTLFNNDDIEANLVKDYEEELANDQEEEEGQGEGHENQSQEQRHKVKIKSYESVIEENGVKLNLNVIDTEGFGDFLNNDQKSWDPIIKEIDSRFDQYLDAENKINRHSINDKRIHACLYFIEPTVHYLKPLDLKFMQSVYEKCNLIPVIAKSDILTDEEILSFKKTIMNQLIQSNIELFKPPIYSNDDAENSHLSERLFSSLPYAVIGSNDIVENYSGNQVRGRSYPWGVIEVDNDNHSDFNLLKNLLIKQFMEELKERTSKILYENYRSSKLAKLGIKQDNSVFKEFDPISKQQEEKTLHEAKLAKLEIEMKTVFQQKVSEKEKKLQKSETELFARHKEMKEKLTKQLKALEDKKKQLELSINSASPNVNHSPVPTKKKGFLR | – | binds | – |
| Cdc3–Cdc11–(His)6–Cdc12-Cdc10(I22E) complex (complex, S. cerevisiae) chain 1: MSLKEEQVSIKQDPEQEERQHDQFNDVQIKQESQDHDGVDSQYTNGTQNDDSERFEAAESDVKVEPGLGMGITSSQSEKGQVLPDQPEIKFIRRQINGYVGFANLPKQWHRRSIKNGFSFNLLCVGPDGIGKTTLMKTLFNNDDIEANLVKDYEEELANDQEEEEGQGEGHENQSQEQRHKVKIKSYESVIEENGVKLNLNVIDTEGFGDFLNNDQKSWDPIIKEIDSRFDQYLDAENKINRHSINDKRIHACLYFIEPTGHYLKPLDLKFMQSVYEKCNLIPVIAKSDILTDEEILSFKKTIMNQLIQSNIELFKPPIYSNDDAENSHLSERLFSSLPYAVIGSNDIVENYSGNQVRGRSYPWGVIEVDNDNHSDFNLLKNLLIKQFMEELKERTSKILYENYRSSKLAKLGIKQDNSVFKEFDPISKQQEEKTLHEAKLAKLEIEMKTVFQQKVSEKEKKLQKSETELFARHKEMKEKLTKQLKALEDKKKQLELSINSASPNVNHSPVPTKKKGFLR chain 2: MSGIIDASSALRKRKHLKRGITFTVMIVGQSGSGRSTFINTLCGQQVVDTSTTILLPTDTSTEIDLQLREETVELEDDEGVKIQLNIIDTPGFGDSLDNSPSFEIISDYIRHQYDEILLEESRVRRNPRFKDGRVHCCLYLINPTGHGLKEIDVEFIRQLGSLVNIIPVISKSDSLTRDELKLNKKLIMEDIDRWNLPIYNFPFDEDEISDEDYETNMYLRTLLPFAIIGSNEVYEMGGDVGTIRGRKYPWGILDVEDSSISDFVILRNALLISHLHDLKNYTHEILYERYRTEALSGESVAAESIRPNLTKLNGSSSSSTTTRRNTNPFKQSNNINNDVLNPASDMHGQSTGENNETYMTREEQIRLEEERLKAFEERVQQELLLKRQELLQREKELREIEARLEKEAKIKQEE chain 3: MSAATATAAPVPPPVGISNLPNQRYKIVNEEGGTFTVMLCGESGLGKTTFINTLFQTVLKRADGQQHRQEPIRKTVEIDITRALLEEKHFELRVNVIDTPGFGDNVNNNKAWQPLVDFIDDQHDSYMRQEQQPYRTKKFDLRVHAVLYFIRPTGHGLKPIDIETMKRLSTRANLIPVIAKADTLTAQELQQFKSRIRQVIEAQEIRIFTPPLDADSKEDAKSGSNPDSAAVEHARQLIEAMPFAIVGSEKKFDNGQGTQVVARKYPWGLVEIENDSHCDFRKLRALLLRTYLLDLISTTQEMHYETYRRLRLEGHENTGEGNEDFTLPAIAPARKLSHNPRYKEEENALKKYFTDQVKAEEQRFRQWEQNIVNERIRLNGDLEEIQGKVKKLEEQVKSLQVKKSHLK chain 4: MDPLSSVQPASYVGFDTITNQEEHRLLKKGFQFNIMVVGQSGLGKSTLINTLFASHLIDSATGDDISALPVTKTTEMKISTHTLVEDRVRLNINVIDTPGFGDFIDNSKAWEPIVKYIKEQHSQYLRKELTAQRERFITDTRVHAILYFLQPNGKELSRLDVEALKRLTEIANVIPVIGKSDTLTLDERTEFRELIQNEFEKYNFKIYPYDSEELTDEELELNRSVRSIIPFAVVGSENEIEINGETFRGRKTRWSAINVEDINQCDFVYLREFLIRTHLQDLIETTSYIHYEGFRARQLIALKENANSRSSAHMSSNAIQR | 24.9% | – | – |

— paper PMC3005623 (Journal of molecular biology, 2010)
